Test results taken from patent US20170166624A1 (University of Texas, published 2017).
Where “and” joins values, the source holds several entries; their conditions need not be identical. Equal entries are not always repeated.

T1: TGF-β2 K25R I92V K94R (TGF-β2TM) (UniProt P61812 303-414, K25R; I92V; K94R)
T1 construct: mature
T1 sequence (looked up): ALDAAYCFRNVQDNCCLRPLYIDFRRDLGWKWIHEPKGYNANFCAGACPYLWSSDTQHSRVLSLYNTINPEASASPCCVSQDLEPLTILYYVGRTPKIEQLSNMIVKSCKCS

T2: TGF-β3 (UniProt P10600 301-412)
T2 sequence (looked up): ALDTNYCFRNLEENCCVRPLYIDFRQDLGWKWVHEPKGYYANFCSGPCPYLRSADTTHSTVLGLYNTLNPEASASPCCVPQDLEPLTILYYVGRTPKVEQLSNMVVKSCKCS

B1: purified TGF-β type III receptor ectodomain (RIII) (receptor)
chain: CELSPINASHPVQALMESFTVLSGCASRGTTGLPREVHVLNLRSTDQGPGQRQREVTLHLNPIASVHTHHKPIVFLLNSPQPLVWHLKTERLAAGVPRLFLVSEGSVVQFPSGNFSLTAETEERNFPQENEHLLRWAQKEYGAVTSFTELKIARNIYIKVGEDQVFPPTCNIGKNFLSLNYLAEYLQPKAAEGCVLPSQPHEKEVHIIELITPSSNPYSAFQVDIIVDIRPAQEDPEVVKNLVLILKCKKSVNWVIKSFDVKGNLKVIAPNSIGFGKESERSMTMTKLVRDDIPSTQENLMKWALDNGYRPVTSYTMAPVANRFHLRLENNEEMRDEEVHTIPPELRILLDPDHPPALDNPLFPGEGSPNGGLPFPFPDIPRRGWKEGEDRIPRPKQPIVPSVQLLPDHREPEEVQGGVDIALSVKCDHEKMVVAVDKDSFQTNGYSGMELTLLDPSCKAKMNGTHFVLESPLNGCGTRHRRSTPDGVVYYNSIVVQAPSPGDSAGWPDGYEDLEAGDNGFPGDGDEGETAPLSRAGVVVFNCSLRQLRNPSGFQGQLDGNATFNMELYNTDLFLVPSPGVFSVAENEHVYVEVSVTKADQDLGFAIQTCFLSPYSNPDRMSDYTIIENICPKDDSVKFYSSKRVHFPIPHAEVDKKRFSFLFKSVFNTSLLFLHCELTLCSRKKGSLKLPRCVTPDDACTSLDATMIWTMMQNKKTFTKPLAVVLQVD
notes: EU was made in CHO Lec 3.2.8.1 cells and purified on NiNTA, which implies a His tag that is not explicitly stated for EU; also called EU; RIII (EU)
B2: purified TGF-β type II receptor ectodomain (RII) (receptor)
chain: NGAVKFPQLCKFCDVRFSTCDNQKSCMSNCSITSICEKPQEVCVAVWRKNDENITLETVCHDPKLPYHDFILEDAASPKCIMKEKKKPGETFFMCSCSSDECNDNIIFSEEYNTSNPD
B3: RII-RIII (REU) fusion (other)
chain: AAANGAVKFPQLCKFCDVRFSTCDNQKSCMSNCSITSICEKPQEVCVAVWRKNDENITLETVCHDPKLPYHDFILEDAASPKCIMKEKKKPGETFFMCSCSSDECNDNIIFSEEYNTSNPDGLGPVESSPGHGLDTAAACELSPINASHPVQALMESFTVLSGCASRGTTGLPREVHVLNLRSTDQGPGQRQREVTLHLNPIASVHTHHKPIVFLLNSPQPLVWHLKTERLAAGVPRLFLVSEGSVVQFPSGNFSLTAETEERNFPQENEHLLRWAQKEYGAVTSFTELKIARNIYIKVGEDQVFPPTCNIGKNFLSLNYLAEYLQPKAAEGCVLPSQPHEKEVHIIELITPSSNPYSAFQVDIIVDIRPAQEDPEVVKNLVLILKCKKSVNWVIKSFDVKGNLKVIAPNSIGFGKESERSMTMTKLVRDDIPSTQENLMKWALDNGYRPVTSYTMAPVANRFHLRLENNEEMRDEEVHTIPPELRILLDPDHPPALDNPLFPGEGSPNGGLPFPFPDIPRRGWKEGEDRIPRPKQPIVPSVQLLPDHREPEEVQGGVDIALSVKCDHEKMVVAVDKDSFQTNGYSGMELTLLDPSCKAKMNGTHFVLESPLNGCGTRHRRSTPDGVVYYNSIVVQAPSPGDSAGWPDGYEDLEAGDNGFPGDGDEGETAPLSRAGVVVFNCSLRQLRNPSGFQGQLDGNATFNMELYNTDLFLVPSPGVFSVAENEHVYVEVSVTKADQDLGFAIQTCFLSPYSNPDRMSDYTIIENICPKDDSVKFYSSKRVHFPIPHAEVDKKRFSFLFKSVFNTSLLFLHCELTLCSRKKGSLKLPRCVTPDDACTSLDATMIWTMMQNKKTFTKPLAVVLQVD

Assays:
[1] = molecular target: T1, TGF-β2 K25R I92V K94R (TGF-β2TM); experiment: SDS-PAGE densitometry of the SEC-isolated complex (TGF-β2TM 51.6 pmol)
Description: RII:RIII:TGF-β2TM form a stable non-disassociating 1:1:1 complex in solution. […] The mixture was applied to a Superdex 200 size exclusion chromatography column and the UV absorbance of the column eluate at 280 nm was monitored. […] To determine the stoichiometry of the complex, a sample of the isolated RII:RIII:TGFβ2-TM complex was run on an SDS-PAGE gel along with known amounts of the individual components (FIG. 3d).

[2] = molecular target: T1, TGF-β2 K25R I92V K94R (TGF-β2TM); experiment: SPR, receptor injected over immobilized TGF-β2TM
Method: (§1) FIG. 2. RII (R) and RIII (EU) form a 1:1:1 complex with TGF-β homodimers. (a) SPR sensorgrams in which increasing concentrations of RII and RIII were injected over a SPR sensor surface with immobilized TGF-β2TM. Mass normalized sensorgrams are shown in panels on the left. Plots of the mass normalized equilibrium response (Req) as a function of receptor concentration ([Receptor]), along with fits to Req=(Rₘₐₓ×[Receptor])/(Kd+[Receptor]), are shown on the right.
The TGF-β type III receptor binds TGF-β dimers with 1:1 stoichiometry. This was shown by comparing the maximal mass-normalized SPR response as increasing concentrations of the purified TGF-β type II receptor ectodomain (RII) and purified TGF-β type III receptor ectodomain (RIII) were injected over immobilized TGF-β2 K25R I92V K94R (TGF-β2TM), a variant of TGF-β2 that binds RII with high affinity (Baardsnes et al, 2009, Biochemistry, 48, 2146-2155; De Crescenzo et al, 2006, J Mol Biol, 355, 47-62).

[3] = molecular target: T1, TGF-β2 K25R I92V K94R (TGF-β2TM); experiment: SPR, RII injected over immobilized TGF-β2TM with or without 80 nM RIII (competitor RIII)
Method: as §1
The TGF-β type III receptor potentiates the binding of the TGF-β type II receptor, but reduces its binding stoichiometry to one per TGF-β homodimer. This was shown by performing SPR experiments in which increasing concentrations of RII were injected over immobilized TGF-β2TM in the absence or presence of a saturating concentration of RIII (80 nM) (FIG. 2b).

TGF-β3 = molecular target: T2, TGF-β3; experiment: SPR competition, receptor with 0.8 nM TGF-β3 over immobilized 1D11
Method: FIG. 6. SPR competition binding data in which increasing concentrations of RII (R), RIII (EU), and RII-RIII (REU) were pre-incubated with 0.8 nM TGF-β3 for 16 h and then injected over a high-density (20000 RU) SPR surface with the TGF-β monoclonal antibody 1D11. Data is presented in terms of the initial slope (which is directly proportional to the concentration of the free TGF-β3 concentration) as a function of the competitor (R, EU, or REU) concentration. Two independent measurements were performed for each of the receptor constructs studied (designated by −a and −b in the legend).
The initial slope of these sensorgrams, which is a linear function of the free TGF-β3 concentration, was then plotted as a function of the concentration of RII, RIII (EU), or RII-RIII (REU) (FIG. 6).

Binder | amount in the isolated RII:RIII:TGF-β2TM complex [1] | maximal mass-normalized response relative to that of RII [2] | fold reduction of the maximal mass normalized binding response in the presence of 80 nM RIII [3] | decrease of EC50 relative to RII or RIII (EU) (TGF-β3)
B1 | 62.4 pmol | ~0.5 fold (ratio to RII) | – | –
B2 | 61.8 pmol | – | 2 fold | –
B3 | – | – | – | ≥ 0.5 log units and ~3 fold
